Source: patent publication US20240301062A1

Key:
CD3ε/δ (SPR analyte) [1] = biological target: CD3ε/δ (SPR analyte) (UniProt P07766); test: SPR
CD3ε/δ (SPR analyte) [2] = biological target: CD3ε/δ (SPR analyte) (UniProt P07766); test: SPR, antibody captured by anti-human Fc
CD3ε/δ (SPR analyte) [3] = biological target: CD3ε/δ (SPR analyte) (UniProt P07766); test: SPR, antibody captured by anti-human Fc; remark: listed apart in the source

CD3ε/δ (SPR analyte), sequence (P07766 23-126, stated change not applied, chain 1 of 2): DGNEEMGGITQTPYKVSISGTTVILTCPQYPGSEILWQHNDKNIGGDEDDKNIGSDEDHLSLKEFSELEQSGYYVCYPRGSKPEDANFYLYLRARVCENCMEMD
CD3ε/δ (SPR analyte), sequence (P04234 22-105, stated change not applied, chain 2 of 2, further chain): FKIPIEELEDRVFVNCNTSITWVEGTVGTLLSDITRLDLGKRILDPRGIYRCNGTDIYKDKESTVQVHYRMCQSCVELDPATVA

| Kd (CD3ε/δ (SPR analyte) [1]) [nM] | koff (CD3ε/δ (SPR analyte) [1]) [s⁻¹] | kon (CD3ε/δ (SPR analyte) [1]) [M⁻¹ s⁻¹] | Kd (CD3ε/δ (SPR analyte) [2]) [nM] | koff (CD3ε/δ (SPR analyte) [2]) [s⁻¹] | kon (CD3ε/δ (SPR analyte) [2]) [M⁻¹ s⁻¹] | Kd (CD3ε/δ (SPR analyte) [3]) [nM] | koff (CD3ε/δ (SPR analyte) [3]) [s⁻¹] | kon (CD3ε/δ (SPR analyte) [3]) [M⁻¹ s⁻¹] | Binder |
| --- | --- | --- | --- | --- | --- | --- | --- | --- | --- |
| 25.9 | 0.00188 | 72500 |  |  |  |  |  |  | humanized sp34 scFv BG561P (scFv-Fc) (Fc fusion, not shown: a dimerising Fc or GST) scFv: EVQLVESGGGLVQPGGSLRLSCAASGFTFNTYAMNWVRQAPGKGLEWVARIRSKYNNYATYYADSVKDRFTISRDDAKNSLYLQMNSLRAEDTAVYYCVRHGNFGNSYVSWFAYWGQGTLVTVSSGGGGSGGGGSGGGGSEIVLTQSPATLSVSPGERATLSCRSSTGAVTTSNYANWVQQKPGQAPRGLIGGTNKRAPGIPARFSGSLSGDEATLTISSLQSEDFAVYYCALWYSNLWVFGGGTKVEIK |
|  |  |  | 27.1 | 0.00296 | 109000 |  |  |  | chimeric sp34 (ch-sp34) (antibody, V domains shown) VH: EVQLVESGGGLVQPKGSLKLSCAASGFTFNTYAMNWVRQAPGKGLEWVARIRSKYNNYATYYADSVKDRFTISRDDSQSILYLQMNNLKTEDTAMYYCVRHGNFGNSYVSWFAYWGQGTLVTVSS VL: QAVVTQESALTTSPGETVTLTCRSSTGAVTTSNYANWVQEKPDHLFTGLIGGTNKRAPGVPARFSGSLIGDKAALTITGAQTEDEAIYFCALWYSNLWVFGGGTKLTVL |
|  |  |  | 25.4 | 0.00252 | 99300 | 9.62 | 0.00105 | 109000 | humanized sp34 BG53P (antibody, V domains shown) VH: EVQLVESGGGLVQPGGSLRLSCAASGFTFNTYAMNWVRQAPGKGLEWVARIRSKYNNYATYYADSVKDRFTISRDDAKSSLYLQMNSLRAEDTAMYYCVRHGNFGNSYVSWFAYWGQGTLVTVSS VL: QAVVTQSPATLSVSPGERATLSCRSSTGAVTTSNYANWVQEKPGQLFTGLIGGTNKRAPGIPARFSGSLSGDEATLTISSLQSEDFAIYFCALWYSNLWVFGGGTKVEIK |
| 18.2 | 0.00112 | 61600 |  |  |  | 18.2 | 0.00112 | 61600 | humanized sp34 BG56P (antibody, V domains shown) VH: EVQLVESGGGLVQPGGSLRLSCAASGFTFNTYAMNWVRQAPGKGLEWVARIRSKYNNYATYYADSVKDRFTISRDDAKNSLYLQMNSLRAEDTAVYYCVRHGNFGNSYVSWFAYWGQGTLVTVSS VL: EIVLTQSPATLSVSPGERATLSCRSSTGAVTTSNYANWVQQKPGQAPRGLIGGTNKRAPGIPARFSGSLSGDEATLTISSLQSEDFAVYYCALWYSNLWVFGGGTKVEIK |
